Key:
[1] = test system: human A549 cells; experiment: Inhibitor studies of SpHtp1^24-68-mRFP translocation into A549 cells; type: cell-based
Description: (§1) Cell culture maintenance of human A549 cell, was done according to the manufacturer's or publisher's instructions. DMEM medium was supplemented with 10% FBS, 100 units/ml Penicillin and 100 μg/ml Streptomycin. Wells containing cover slips with attached cells of 80% confluent were washed 2× with HBSS before the translocation experiments.
For the inhibitor studies, A549 cells were pre-incubated with different concentrations of SCH-202676 (allosteric inhibitor via disulfhydryl group) as indicated for 1 h at 37° C. and after this incubated for another 1 h at 37° C. with 3 μM SpHtp1^24-68-mRPF.
(§2) After incubation human as well as fish cells were washed 3× with HBSS and fixed with 4% ice-cold PFA in PBST (PBS+0.1% tween) for 15 min at RT. Residual PFA was removed with 5× washing steps with PBS. Cells were mounted with Vectashield with DAPI. Samples were analysed by a Zeiss LSM710 confocal microscope or an epifluorescence microscope (Zeiss Imager M2 with metal halide light source). For quantification mean intensity or vesicles per cell were counted with ImageJ. A maximum of 5 cells were analysed from the same picture. Bars denote s.e.m of 50 cells counted per sample.

[2] = test system: RTG-2 cells; experiment: Translocation mechanism study with uptake pathway inhibitors in RTG-2 cells; type: cell-based, rainbow trout; details: 80 μM dynasore, 1× Brefeldin A or 100 μM nystatin pre-incubation; 3 μM SpHtp1^24-68-mRFP 1 h at 18° C.
Description: as §1, with “fish RTG-2 (ATCC CCL-55)” for “human A549 cell,”, “L-15” for “DMEM”, “before” for “before the”
For experiments investigating translocation mechanism, cells were pre-incubated with various inhibitors (80 μM of dynasore, 1× Brefeldin A or 100 μM nystatin) for 1 h at 18° C., 2 h for dynasore (FIG. 2). Afterwards, 3 μM SpHtp1^24-68-mRPF were incubated for another 1 h at 18° C. For the time course experiment (FIG. 2) cells were pre-incubated with 10 μM dynasore and the incubation with 3 μM SpHtp1^24-68-mRPF at 18° C. stopped at the times as indicated. In order to investigate the influence of SpHtp1^24-198-His on the vesicle release of SpHtp3^21-211-RFP, 3 μM of each protein was pre-incubated in L-15 for 30 min at RT before added to the cells for the usual incubation of 1 h at 18° C.
as §2

[3] = biological target: T1, β2-adrenergic receptor (Homo sapiens, UniProt P07550)
[4] = test system: human A549 cells; experiment: Translocation of SpHtp1^24-68-mRFP into human A549 cells; type: cell-based; details: see FIG. 2A, 2C
Description: as §1
For translocation experiments using SpHtp1-coupled microparticles (FIG. 1), 300 μg carbon beads were pre-incubated with 3 μM SpHtp1^24-68-mRPF in 300 μl DMEM without Fetal Calf Serum for 1 h at 37° C. on a rotator to couple the SpHtp1 translocation sequence to the particles. […] Following coupling, the supplemented medium was applied to the cells for 1 h at 37° C. For translocation experiments using SpHtp1^24-68-mRPF (FIG. 2) cells were incubated with 3 μm SpHtp1^24-68-mRPF for 1 h at 37° C.
as §2

[5] = test system: SpHtp3; experiment: Protein cross linking of SpHtp1 and SpHtp3; type: binding, Saprolegnia parasitica; details: PFA cross link; FIG. 5E
Description: In order to detect a direct interaction, 10 μg of SpHtp1 and 10 μg of SpHtp3 or each protein alone were pre-incubated in PBS (total: 15 μl) for 15 min at RT. For cross linking 15 μl ice-cold 4% PFA/PBS (final concentration: 2%) was added and incubated for 10 min at RT. The reaction was stopped with 7 μl Laemmli loading dye and subsequent heating to 65° C. for 10 min. Complex formation was investigated by SDS-PAGE and confirmed by LC-MS/MS.

[6] = test system: cells; experiment: Cytotoxic effects, cell morphology and viability after extended incubation; type: cell-based; details: extended incubation periods of up to 24 hours
[7] = test system: human cells (such as HEK cells or the human epithelial lung cell line A549); experiment: Translocation into human cells; type: cell-based
[8] = biological target: T1, β2-adrenergic receptor; experiment: Co-immunoprecipitation with anti-β2 adrenoceptor antibody; type: binding; set-up: confluent A549 cells from a 75 cm^2 flask where detached and resuspended in 500 μl PBS; The cells were lysed by sonication; endogenous in cells; host or cells: A549 (human lung epithelial cell line), sonicated lysate supernatant; details: A549 lysate, 10 μM SpHtp1^24-68-RFP; FIG. 3C
Description: For co-immunoprecipitation (FIG. 3) confluent A549 cells from a 75 cm^2 flask where detached and resuspended in 500 μl PBS. The cells were lysed by sonication (3×30 sec, 30% intensity, 1 min break on ice) and cell debris removed by centrifugation (16,000×g, 25 min, 4° C.). The supernatant was supplemented with 10 μM SpHtp1^24-68-RFP and 2.5 μg of an anti-82 adrenoceptor and incubated overnight on rotator at 4° C. The next day 200 μl PBS-equilibrated protein G/A beads were added for 2.5 h on rotator at 4° C. After, beads were washed 5 times with 1 ml PBS each. The elution was done with SDS sample buffer and boiling at 95° C. for 10 min.
For the immunoblot, samples were transferred to a nitrocellulose membrane and blocked with 5% milk powder in PBST (PBS+0.1% tween) for 1 h at RT. Incubation of the first antibody (anti-(32 adrenoceptor, 1:200) was done overnight on rotator at 4° C. Excess of antibody was removed by 3 washing steps with PBST, 5 min each. The secondary antibody (anti-rabbit HRP-coupled, 1:1000) was incubated for 1 h at RT in PBST with 5% milk powder. The membrane was washed 4 times (2×PBST and 2×PBS) before the bands were visualised with an ECL substrate and a developer.

[9] = test system: fish cells; experiment: Translocation into fish cells; type: cell-based

NC[C@H](O)c1ccc(O)c(O)c1 [noradrenalin]
effect of endogenous receptor ligands on the uptake of SpHtp1 [1]: do not have an effect

CNCC(O)c1ccc(O)c(O)c1 (stereo not drawn) [adrenalin]
effect of endogenous receptor ligands on the uptake of SpHtp1 [1]: do not have an effect

C[C@@H]1[C@H](O)[C@@H](C)/C=C/C=C/CC/C=C/C=C/C=C/C=C/C(O[C@H]2O[C@H](C)[C@@H](O)[C@H](N)[C@@H]2O)CC2O[C@](O)(CC(O)C(O)CCC(O)CC(O)CC(O)CC(=O)O[C@H]1C)CC(O)C2C(=O)O (stereo partly drawn) [nystatin]
effect on SpHtp1^24-68-mRFP translocation [2]: no effect

C[C@H]1CCC/C=C/[C@@H]2C[C@H](O)C[C@H]2[C@H](O)/C=C/C(=O)O1 [Brefeldin A]
effect on SpHtp1^24-68-mRFP translocation [2]: no effect

SpHtp1^24-68-mRFP
uptake into the cell, EC50 [3]: 1230 nM

CN=c1nc(-c2ccccc2)n(-c2ccccc2)s1 [SCH-202676]
binding of SpHtp1^24-68-mRFP to the cells after pre-incubation with inhibitor ([1]; 10 μM SCH-202676, FIG. 3A): not influenced | translocation of SpHtp1^24-68-mRFP into cells after pre-incubation with inhibitor ([1]; 10 μM SCH-202676, FIG. 3A): inhibited | concentration dependence of inhibition of translocation ([1]; different concentrations, 1 h at 37° C., FIG. 3B): concentration-dependent

O=C(N/N=C/c1ccc(O)c(O)c1)c1cc2ccccc2cc1O [dynasore]
effect on SpHtp1^24-68-mRFP translocation [2]: accumulation of red fluorescence at the membrane

B1: SpHtp1: putative effector protein from the fish pathogenic oomycete Saprolegnia parasitica, full-length 198 amino acids (protein)
chain: MRIHHPLTLAALCVVLHESLGAAQHSNNVARLEHYRIAEIEHWEKRHLRSDSRGHRHHAHHGQVIDKENNNSQEQATTGNSVETNQVPSTEPTKDKTTPMKNALFKLFREKKLKTKNAGNGHAHDDDDDSDFSDDDVPTNAPTDAPTGAPTDAPTDAPTVAPTDAPTDAPTEAPTNAPTGTDAPTDAPTDAQVVPTFD
modifications: SpHtp1 (1-198)
EC50 ([4]; cell line not given, read-out: uptake into the cell, EC50): 1230 nM | time of binding of SpHtp1 to the cell surface [4]: 5 to 10 min | time to significant uptake into the cell [4]: 20 to 30 min | in vitro complex formation after cross link (SDS-PAGE, LC-MS/MS) [5]: additional band for a cross-linked SpHtp1-SpHtp3 complex | cytotoxic effects, cell morphology, viability [6]: do not have any immediate cytotoxic effects on cells, and do not alter cell morphology or viability | entry into human cells ([7]; via the β-adrenoceptor): able to enter human cells | interaction with the β2-adrenergic receptor by co-immunoprecipitation [8]: at least indirect interaction

B2: SpHtp1a: SpHtp1 homolog shown in FIG. 6 (protein)
chain: MRIYHPLTLAALCVVLHESLGAAQHSNNVARLEHYSVAEIEHWEKRHLRNSDSRGHRHHAHHGQVIDKENNNSQEQATTGNSVETNQVPFTQPTKDKTASIKTAVFKLLRENKLKTKNAGNGHAHDDDDDDDSNFSDDDVPTNAPTGAPTGAPTDAPTNAPTDAPTDAPTDAPTDAPTDAPTDAPTDAPTTLPPMPRRRSHRCPDRHSHRCDPRRTHGCPD
modifications: SpHtp1a (1-221)
translocation into fish cells [9]: able to translocate into both fish and human cells | translocation into human cells [7]: able to translocate into both fish and human cells

From patent publication US20210205462A1, “Translocation into Eukaryotic Cells” (The University Court of the University of Aberdeen, priority 2018, published 2021)
